Results: patent US20210246166A1 (Bayer, published 2021)
Numbered stars: 1 amine (or outer) side, 2 acyl side, 3 side chain; on linkers, the order of the positions; unused ones are H or OH. Bridge positions count the residues as written; N and C are the ends. Square brackets hold non-standard residues; d marks the D form. Ends that are not written are not given here. * marks the point of attachment. X17 = 2‑((1S,2S)-1-(Amino)-2-methylbutyl)‑1,3‑oxazole‑4‑carboxylic acid, CC[C@H](C)[C@H](N[*:1])c1nc(C(=O)[*:2])co1; (3-Chloro-Ph)G = 3-chlorophenylglycine, O=C([C@@H](N[*:1])c1cccc(Cl)c1)[*:2]; Oic = O=C(O)[C@@H]1C[C@@H]2CCCC[C@@H]2N1; Phe(3-Br) = N[C@@H](Cc1cccc(Br)c1)C(=O)O; Cyclobutanecarbonyl = O=C(C1CCC1)*; tBuAla = CC(C)(C)C[C@H](N)C(=O)O; Pen = CC(C)(S)[C@H](N)C(=O)O; NMeC = CN[C@@H](CS)C(=O)O; NPhGly = O=C(O)CNc1ccccc1; NMeA = CN[C@@H](C)C(=O)O; Orn = NCCC[C@H](N)C(=O)O

T1: Recombinant human MASP1 enzyme (fragment corresponding to amino acids 297-699, C-terminal His Tag) (human, UniProt P48740 297-699)
T1 sequence: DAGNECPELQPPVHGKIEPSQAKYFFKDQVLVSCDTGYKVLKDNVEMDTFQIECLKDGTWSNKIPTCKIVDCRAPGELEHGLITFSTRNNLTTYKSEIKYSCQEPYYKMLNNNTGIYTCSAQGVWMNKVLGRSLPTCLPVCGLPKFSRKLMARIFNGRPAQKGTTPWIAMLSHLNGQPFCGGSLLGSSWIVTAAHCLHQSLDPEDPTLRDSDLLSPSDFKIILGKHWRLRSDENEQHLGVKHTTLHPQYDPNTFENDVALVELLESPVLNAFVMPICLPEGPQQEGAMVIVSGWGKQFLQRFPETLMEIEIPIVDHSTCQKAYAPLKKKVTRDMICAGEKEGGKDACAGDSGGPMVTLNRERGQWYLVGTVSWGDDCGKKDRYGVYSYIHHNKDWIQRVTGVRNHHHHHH

T2: recombinant human MASP1 active protease (amino acids 297-699, C-terminal His Tag) (human, UniProt P48740 297-699)
T2 sequence: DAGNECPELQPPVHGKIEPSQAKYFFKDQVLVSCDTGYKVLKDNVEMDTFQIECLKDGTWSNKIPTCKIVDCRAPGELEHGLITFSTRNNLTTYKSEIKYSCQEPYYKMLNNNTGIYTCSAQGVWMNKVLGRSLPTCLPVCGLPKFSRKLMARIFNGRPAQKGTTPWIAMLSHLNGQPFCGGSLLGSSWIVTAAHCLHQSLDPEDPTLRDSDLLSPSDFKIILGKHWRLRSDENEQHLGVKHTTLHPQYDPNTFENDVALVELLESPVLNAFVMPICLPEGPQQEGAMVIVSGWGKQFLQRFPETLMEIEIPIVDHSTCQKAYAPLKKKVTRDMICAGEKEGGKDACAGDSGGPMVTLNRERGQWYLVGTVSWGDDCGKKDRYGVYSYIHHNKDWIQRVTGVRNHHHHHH


Assays:
Experiment in all cases: cell-based or functional assay
[1] = molecular target: T1, Recombinant human MASP1 enzyme …
[2] = molecular target: Recombinant human MASP2 enzyme (fragment corresponding to amino acids 297-686, C-terminal His Tag) (human, UniProt O00187 297-686)
Sequence of Recombinant human MASP2 enzyme (fragment corresponding to amino acids 297-686, C-terminal His Tag) (O00187 other isoform, or with tags, fused parts or gaps limits assumed): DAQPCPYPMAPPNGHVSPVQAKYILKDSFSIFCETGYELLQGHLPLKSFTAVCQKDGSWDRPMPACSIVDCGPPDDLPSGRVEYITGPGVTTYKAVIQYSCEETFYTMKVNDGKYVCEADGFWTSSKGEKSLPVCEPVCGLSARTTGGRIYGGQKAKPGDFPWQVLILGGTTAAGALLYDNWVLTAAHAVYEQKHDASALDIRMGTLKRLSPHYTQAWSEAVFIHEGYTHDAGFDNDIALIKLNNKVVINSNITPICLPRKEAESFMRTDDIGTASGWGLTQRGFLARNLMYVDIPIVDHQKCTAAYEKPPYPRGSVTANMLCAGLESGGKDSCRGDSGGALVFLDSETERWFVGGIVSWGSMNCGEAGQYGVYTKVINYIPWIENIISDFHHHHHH

[3] = molecular target: T2, recombinant human MASP1 active protease …

Binder	human MASP1 IC50 [1]	human MASP2 IC50 [2]	human MASP1 IC50 [3]
AICSRSLPP[(3-Chloro-Ph)G]CIPD-NH2 (disulfide 3-11; N-terminus assumed; SMILES CC[C@H](C)[C@H](NC(=O)[C@H](C)N)C(=O)N[C@H]1CSSC[C@@H](C(=O)N[C@H](C(=O)N2CCC[C@H]2C(=O)N[C@@H](CC(=O)O)C(N)=O)[C@@H](C)CC)NC(=O)[C@H](c2cccc(Cl)c2)NC(=O)[C@@H]2CCCN2C(=O)[C@@H]2CCCN2C(=O)[C@H](CC(C)C)NC(=O)[C@H](CO)NC(=O)[C@H](CCCNC(=N)N)NC(=O)[C@H](CO)NC1=O) [AIC+SRSLPP-((3-Chloro-Ph)G)-C+IPD-NH2]	19 nM	1400 nM	–
Cyclobutanecarbonyl-ICSRS[tBuAla]PPI[NMeC]I-NH2 (disulfide 2-10; SMILES CC[C@H](C)[C@H](NC(=O)[C@@H]1CSSC[C@H](NC(=O)[C@@H](NC(=O)C2CCC2)[C@@H](C)CC)C(=O)N[C@@H](CO)C(=O)N[C@@H](CCCNC(=N)N)C(=O)N[C@@H](CO)C(=O)N[C@@H](CC(C)(C)C)C(=O)N2CCC[C@H]2C(=O)N2CCC[C@H]2C(=O)N[C@@H]([C@@H](C)CC)C(=O)N1C)C(N)=O) [(Cyclobutanecarboxylic)-IC+SRS-((tBu)A)-PPI-((N-Me)C)+I-NH2]	18 nM	19 nM	–
[NMeA]ICSRSLPPICIPD-NH2 (disulfide 3-11; N-terminus assumed; SMILES CC[C@H](C)[C@H](NC(=O)[C@H](C)NC)C(=O)N[C@H]1CSSC[C@@H](C(=O)N[C@H](C(=O)N2CCC[C@H]2C(=O)N[C@@H](CC(=O)O)C(N)=O)[C@@H](C)CC)NC(=O)[C@H]([C@@H](C)CC)NC(=O)[C@@H]2CCCN2C(=O)[C@@H]2CCCN2C(=O)[C@H](CC(C)C)NC(=O)[C@H](CO)NC(=O)[C@H](CCCNC(=N)N)NC(=O)[C@H](CO)NC1=O) [((N-Me)A)-IC+SRSLPPIC+IPD-NH2]	18 nM	500 nM	–
{Tetrahydro‑2H‑pyran‑3‑ylacetic acid}-ICSRSLP[Oic]I[Pen]IP-NH2 (disulfide 2-10) [(Tetrahydro-2H-pyran-3-ylacetic acid)-IC+SRSLP-(Oic)-I-(Pen)+IP-NH2]	17 nM	12 nM	–
[NPhGly]ICSRS[tBuAla]PPI[NMeC]I-NH2 (disulfide 3-11; N-terminus assumed; SMILES CC[C@H](C)[C@H](NC(=O)[C@@H]1CSSC[C@H](NC(=O)[C@@H](NC(=O)CNc2ccccc2)[C@@H](C)CC)C(=O)N[C@@H](CO)C(=O)N[C@@H](CCCNC(=N)N)C(=O)N[C@@H](CO)C(=O)N[C@@H](CC(C)(C)C)C(=O)N2CCC[C@H]2C(=O)N2CCC[C@H]2C(=O)N[C@@H]([C@@H](C)CC)C(=O)N1C)C(N)=O) [((N-Ph)G)-IC+SRS-((tBu)A)-PPI-((N-Me)C)+I-NH2]	18 nM	42 nM	–
[Orn]ICSRS[tBuAla]PPI[NMeC][X17]D-NH2 (disulfide 3-11; N-terminus assumed; SMILES CC[C@H](C)[C@H](NC(=O)[C@@H](N)CCCN)C(=O)N[C@H]1CSSC[C@@H](C(=O)N[C@H](c2nc(C(=O)N[C@@H](CC(=O)O)C(N)=O)co2)[C@@H](C)CC)N(C)C(=O)[C@H]([C@@H](C)CC)NC(=O)[C@@H]2CCCN2C(=O)[C@@H]2CCCN2C(=O)[C@H](CC(C)(C)C)NC(=O)[C@H](CO)NC(=O)[C@H](CCCNC(=N)N)NC(=O)[C@H](CO)NC1=O)	18 nM	910 nM	–
ICSRSLP[Oic]I[Pen]IPD-NH2 (disulfide 2-10; N-terminus assumed; SMILES CC[C@H](C)[C@H](N)C(=O)N[C@H]1CSSC(C)(C)[C@@H](C(=O)N[C@H](C(=O)N2CCC[C@H]2C(=O)N[C@@H](CC(=O)O)C(N)=O)[C@@H](C)CC)NC(=O)[C@H]([C@@H](C)CC)NC(=O)[C@@H]2C[C@@H]3CCCC[C@@H]3N2C(=O)[C@@H]2CCCN2C(=O)[C@H](CC(C)C)NC(=O)[C@H](CO)NC(=O)[C@H](CCCNC(=N)N)NC(=O)[C@H](CO)NC1=O) [IC+SRSLP-(Oic)-I-(Pen)+IPD-NH2]	17 nM	603 nM	–
AICSRSLP[Oic]ICI-OH (disulfide 3-11; N-terminus assumed; SMILES CC[C@H](C)[C@H](NC(=O)[C@@H]1CSSC[C@H](NC(=O)[C@@H](NC(=O)[C@H](C)N)[C@@H](C)CC)C(=O)N[C@@H](CO)C(=O)N[C@@H](CCCNC(=N)N)C(=O)N[C@@H](CO)C(=O)N[C@@H](CC(C)C)C(=O)N2CCC[C@H]2C(=O)N2[C@@H](C[C@@H]3CCCC[C@@H]32)C(=O)N[C@@H]([C@@H](C)CC)C(=O)N1)C(=O)O) [AIC+SRSLP-(Oic)-IC+I-OH]	16 nM	930 nM	–
FICSRSLP[Oic]I[Pen]IP-NH2 (disulfide 3-11; N-terminus assumed; SMILES CC[C@H](C)[C@H](NC(=O)[C@@H](N)Cc1ccccc1)C(=O)N[C@H]1CSSC(C)(C)[C@@H](C(=O)N[C@H](C(=O)N2CCC[C@H]2C(N)=O)[C@@H](C)CC)NC(=O)[C@H]([C@@H](C)CC)NC(=O)[C@@H]2C[C@@H]3CCCC[C@@H]3N2C(=O)[C@@H]2CCCN2C(=O)[C@H](CC(C)C)NC(=O)[C@H](CO)NC(=O)[C@H](CCCNC(=N)N)NC(=O)[C@H](CO)NC1=O) [FIC+SRSLP-(Oic)-I-(Pen)+IP-NH2]	16 nM	81 nM	–
[Phe(3-Br)]ICSRS[tBuAla]PPI[Pen]IPD-NH2 (disulfide 3-11; N-terminus assumed; SMILES CC[C@H](C)[C@H](NC(=O)[C@@H](N)Cc1cccc(Br)c1)C(=O)N[C@H]1CSSC(C)(C)[C@@H](C(=O)N[C@H](C(=O)N2CCC[C@H]2C(=O)N[C@@H](CC(=O)O)C(N)=O)[C@@H](C)CC)NC(=O)[C@H]([C@@H](C)CC)NC(=O)[C@@H]2CCCN2C(=O)[C@@H]2CCCN2C(=O)[C@H](CC(C)(C)C)NC(=O)[C@H](CO)NC(=O)[C@H](CCCNC(=N)N)NC(=O)[C@H](CO)NC1=O) [Example 330: ((3-Bromo)F)-IC+SRS-((tBu)A)-PPI-(Pen)+IPD-NH2]	–	–	24 nM
ICSRS[tBuAla]PPI[Pen]IPP-NH2 (disulfide 2-10; N-terminus assumed; SMILES CC[C@H](C)[C@H](N)C(=O)N[C@H]1CSSC(C)(C)[C@@H](C(=O)N[C@H](C(=O)N2CCC[C@H]2C(=O)N2CCC[C@H]2C(N)=O)[C@@H](C)CC)NC(=O)[C@H]([C@@H](C)CC)NC(=O)[C@@H]2CCCN2C(=O)[C@@H]2CCCN2C(=O)[C@H](CC(C)(C)C)NC(=O)[C@H](CO)NC(=O)[C@H](CCCNC(=N)N)NC(=O)[C@H](CO)NC1=O) [IC+SRS-((tBu)A)-PPI-(Pen)+IPP-NH2]	19 nM	500 nM	–
